The nature of series [1]: Biodistribution in nude mice bearing PC-3 tumor xenografts. Conditions: female, athymic nude (Fox-1^nu), mouse, in vivo, iv, 10 pmol, total radioactivity. The procedure: Biodistribution studies were performed in nude mice bearing PC-3 tumor xenografts at 1 h post-injection (p.i.) of the radiotracers (n = 6; Table 3, Figure 4).
All animals were treated according to the European Union rules on animal care. Animal experiments were approved by the Austrian Ministry of Sciences (BMBWF-66.009/0122-V/3b/2019). Approximately 5 × 10^6 PC-3 cells in 100 µL serum-free medium were subcutaneously injected into flanks of 8-week-old, female, athymic mice (Fox-1^nu, Charles River Laboratories). Xenografts were allowed to grow for 16 days (approx. size: 250 mm^3) and mice were intravenously injected via the tail vein with 0.1 µM radiolabeled peptide (10 pmol, ~42 kBq, 100 µL physiological saline) alone (baseline experiments) or co-injected with 2000-fold excess BBN(1–14) (20 nmol; blocking experiments). One hour p.i. of the radiotracers, mice were sacrificed and organs, tumor and blood were removed. Radioactivity in organs and tissues was quantified using a γ-counter (2480 Wizard^2, PerkinElmer). Organs and tissues were wet-weighted and percentage of injected dose per gram was calculated (% ID/g). Statistical analysis (2-way ANOVA) was performed by GraphPad Prism.

A short description of another series: physchem. The class given is physicochemical. Conditions: pH 7.4. As to the method: For logD analysis, the octanol/PBS partition coefficients of the ^99mTc-tricarbonyl labeled BBN conjugates were determined at pH 7.4 utilizing the “shake-flask method” [25, 26]. The logD value for the reference compound [^99mTc][Tc(CO)3(BBN-13)] was −0.54 ± 0.04 while for the glycated compound [^99mTc][Tc(CO)3(12)] it was −1.26 ± 0.16 (Table 2). As expected, these measurements confirmed the increased hydrophilicity of the glycated ^99mTc-labeled BBN conjugate due to the introduction of the sorbitol moiety.
The lipophilicities (LogD) of [^99mTc][Tc(CO)3(L)] (L = 12, 13) were determined by their partition coefficient between n-octanol and PBS (pH 7.4) utilizing the “shake-flask method” [25, 26]. PBS and n-octanol were shaken overnight to saturate each phase. After separation of the layers by gravity, equal volumes (500 µL) of each layer were taken and transferred into an Eppendorf tube and 5 µL (~45 kBq) of the radiolabeled peptide solution were added to the PBS/n-octanol mixture. […] Aliquots of 300 µL were removed from the octanol and PBS phases and the radioactivity was measured in the γ-counter (n = 3 in triplicates). The lipophilicity was calculated as the log value of the average ratio between the radioactivity in the organic fraction (octanol) and the PBS fraction from the samples.

The target of series [2] is T1, Gastrin-releasing peptide receptor (GRPR) on PC-3 cells (Homo sapiens, UniProt P30550).
T1 construct: using GRPR expressing PC-3 cells; host or cells: PC-3 human prostate adenocarcinoma cells (intact, in 6-well plates, 4 °C)
Briefly: Receptor saturation assay. The format is binding. To be noted: 4 °C, 2 h, nonlinear regression, mean ± SEM, n = 2–3 in triplicate. The procedure:
The receptor affinity (Kd) and maximum receptor occupancy (Bmax) were determined by receptor saturation assays using increasing amounts of the radiolabeled peptides (Figure 3). […] Differences in specific molar activities (MBq/mol) could account for this observation and cannot be entirely excluded even though both ^99mTc-radiopeptides were prepared under identical conditions. Because this study aims at the investigation of differences in the pharmacokinetics of the radiopeptides (e.g., rate and route of excretion) rather than in tumor uptake, we continued with the evaluation of both compounds in vivo.
Cell culture reagents were purchased from Thermo Fisher Scientific (Vienna, Austria) or Sigma-Aldrich (Vienna, Austria). Human prostate adenocarcinoma cells (PC-3) were purchased from ATCC and cultivated in RPMI-1640 medium supplemented with 10% heat-inactivated fetal bovine serum (FBS), 2 mM L-glutamine, 100 units/mL penicillin and 100 μg/mL streptomycin under humidified atmosphere (37 °C, 5% CO2) until minimum 80% at confluence. […]
Receptor binding assays were performed as previously published. […] Non-specific receptor binding was determined using an excess of natural bombesin (2.5 μM/well for concentrations of the radiopeptide <10 nM, and 10 μM/well for higher concentrations). […] The obtained fractions were measured in a γ-counter.

For series [3], the system named is GRPR expressing PC-3 cells. Briefly: Cell binding and internalization studies. The format is cell-based, human. As to the method:
Receptor binding and cell internalization properties of the ^99mTc(CO)3-labeled BBN derivatives were investigated with GRPR expressing PC-3 cells (n = 2–3 in triplicate). Despite the slightly slower uptake kinetics of [^99mTc][Tc(CO)3(12)], both radiolabeled compounds [^99mTc][Tc(CO)3(L)] […] The membrane bound fraction was less than 5% AD/10^6 cells for both compounds. The receptor-specific cell uptake was verified by incubating the cells with the radiopeptides in the presence of 1000-fold excess of natural bombesin as blocking agent.
Cell culture reagents were purchased from Thermo Fisher Scientific (Vienna, Austria) or Sigma-Aldrich (Vienna, Austria). […]
Internalization studies were performed as previously published. […] Non-specific receptor binding was determined by incubating the cells with the radiotracers and 1000-fold excess of natural bombesin (250 pmol; 100 μL per well) as the receptor blocking agent. […] The receptor-bound radioactivity was obtained by incubating the cells twice for 5 min with an ice-cold acidic glycine solution (100 mM NaCl, 50 mM glycine, pH 2.8; 1 mL) on ice followed by removal of the supernatant. […] All fractions were measured in a γ-counter and calculated as percentage of the applied dose (n = 2–3 in triplicate).

The record followed here is paper PMC7321340, “Sorbitol as a Polar Pharmacological Modifier to Enhance the Hydrophilicity of ^99mTc-Tricarbonyl-Based Radiopharmaceuticals” (Molecules, 2020).

SMILES strings stand for the structures. Like-named read-outs stand apart in the source and are kept apart here.

T1 sequence (P30550 whole entry): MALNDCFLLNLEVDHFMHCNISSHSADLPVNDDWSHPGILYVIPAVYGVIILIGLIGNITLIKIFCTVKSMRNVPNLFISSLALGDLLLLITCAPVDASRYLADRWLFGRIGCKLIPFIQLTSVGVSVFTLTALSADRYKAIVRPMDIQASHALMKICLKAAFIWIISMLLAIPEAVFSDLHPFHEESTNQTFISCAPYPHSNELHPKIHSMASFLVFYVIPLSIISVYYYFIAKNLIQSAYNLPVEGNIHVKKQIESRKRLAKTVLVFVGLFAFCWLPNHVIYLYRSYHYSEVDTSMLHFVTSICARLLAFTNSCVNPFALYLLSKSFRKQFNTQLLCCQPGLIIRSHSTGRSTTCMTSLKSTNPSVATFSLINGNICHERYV

Take `CCCC[C@H](NC(=O)[C@H](CC(C)C)NC(=O)[C@H](Cc1c[nH]cn1)NC(=O)CNC(=O)[C@@H](NC(=O)[C@H](C)NC(=O)[C@H](Cc1c[nH]c2ccccc12)NC(=O)[C@H](CCC(N)=O)NC(=O)CCNC(=O)CCNC(=O)CCNC(=O)Cn1cc(CN[C@@H](CCCCNC(=O)CCCOC[C@H](O)[C@@H](O)[C@H](O)[C@H](O)CO)C(=O)O)nn1)C(C)C)C(N)=O` [[^99mTc][Tc(CO)3(12)], metal not drawn]: the increase of hydrophilicity (logD) vs non-glycated reference came to 0.7 log units. Also, in series [1] (1 h p.i., i.v. 10 pmol, PC-3 xenograft, GRPR-positive, mean ± SD, n = 5–6, read-out: Tumor uptake), the tissue uptake at 1 h was determined as 2.72 ± 0.88 %ID/g. Further, the tissue uptake at 1 h in series [1] (1 h p.i., i.v. 10 pmol, mean ± SD, n = 5–6, read-out: Blood uptake) came out at 1.22 ± 0.4 %ID/g. The tissue uptake at 1 h in series [1] (1 h p.i., i.v. 10 pmol, mean ± SD, n = 5–6, read-out: Bone uptake) was found to be 0.44 ± 0.28 %ID/g. Besides, the tissue uptake at 1 h in series [1] (1 h p.i., i.v. 10 pmol, mean ± SD, n = 5–6, read-out: Brain uptake) turned out to be 0.09 ± 0.07 %ID/g. The tissue uptake at 1 h in series [1] (1 h p.i., i.v. 10 pmol, mean ± SD, n = 5–6, read-out: Heart uptake) turned out to be 0.5 ± 0.23 %ID/g. For the same molecule, the tissue uptake at 1 h in series [1] (1 h p.i., i.v. 10 pmol, mean ± SD, n = 5–6, read-out: Kidney uptake) stood at 4.32 ± 0.97 %ID/g. In series [1] (1 h p.i., i.v. 10 pmol, mean ± SD, n = 5–6, read-out: Liver uptake), the tissue uptake at 1 h was 2.75 ± 0.74 %ID/g. For the same molecule, the tissue uptake at 1 h in series [1] (1 h p.i., i.v. 10 pmol, mean ± SD, n = 5–6, read-out: Lung uptake) amounted to 1.38 ± 0.83 %ID/g. Further, the tissue uptake at 1 h in series [1] (1 h p.i., i.v. 10 pmol, mean ± SD, n = 5–6, read-out: Muscle uptake) came to 0.35 ± 0.24 %ID/g. In addition, in series [1] (1 h p.i., i.v. 10 pmol, mean ± SD, n = 5–6, read-out: Spleen uptake), the tissue uptake at 1 h turned out to be 1.16 ± 0.17 %ID/g. The tissue uptake at 1 h in series [1] (Adrenal uptake) turned out to be 5.34 ± 1.85 %ID/g. Also, in series [1] (Colon uptake), the tissue uptake at 1 h came to 5.85 ± 1.29 %ID/g. Also, the tissue uptake at 1 h in series [1] (Intestine uptake) worked out at 3.71 ± 1.48 %ID/g. Besides, the tissue uptake at 1 h in series [1] (Pancreas uptake) was 17.1 ± 3.25 %ID/g. In addition, the tissue uptake at 1 h in series [1] (Stomach uptake) was determined as 3.03 ± 0.88 %ID/g. Further, the logD (as a rule, lipophilicity at a set pH, counting ionised and neutral species) in the series “physchem” was -1.26 ± 0.16. Moreover, in series [2] (1–100 nM radiopeptide), the Kd (commonly the equilibrium constant for the complex coming apart) turned out to be 21.3 ± 4.6 nM. In series [2] (maximum receptor occupancy), the Bmax worked out at 0.91 ± 0.06 nM. In addition, the “cellular binding and uptake in the presence of blocking agent” value in series [3] (1000-fold excess of natural bombesin) is reported as under 0.5 % AD/10^6 cells. The membrane bound fraction entry in series [3] (acidic glycine wash fraction, n = 2–3 in triplicate) is “less than 5 % AD/10^6 cells”.
